Laboratory results reported in article PMC10227007.

Assays:
[1] = target: MYC-OsSERL2 (overexpression line MYC-OsSERL2-OE1) (Oryza sativa japonica cv. Zhonghua 11 (ZH11)); assay: co-IP; seedlings of COG1-HA-L1/MYC-OsSERL2-OE1 treated at 4 °C for 0, 24 and 48 h; total protein adjusted to equivalent levels of COG1-HA; precipitated with Anti-c-Myc Magnetic Beads, COG1-HA band measured by Image J (0 h = 1.0)
[2] = target: OsSERL2-MYC-cCFP (Oryza sativa japonica cv. Zhonghua 11 (ZH11)); assay: split reporter (BiFC, NanoBiT); BiFC in rice protoplasts, nVenus and cCFP fusions co-expressed, YFP fluorescence by confocal microscopy (Leica TCS SP5); in one experiment the protoplasts were kept at 28 °C or 4 °C for 24 h and the intensity measured by Image J

Row | relative density of the co-precipitated COG1-HA band after 24 h at 4 °C, against 0 h (1.0) (relative to 0 h (1.0)) [1] | relative density of the co-precipitated COG1-HA band after 48 h at 4 °C, against 0 h (1.0) (relative to 0 h (1.0)) [1] | BiFC fluorescence intensity at 4 °C for 24 h, relative to 28 °C (1.0) (relative to 28 °C (1.0)) [2] | Substance
1 | 4.7 | 5.8 |  | COG1-HA (from the COG1::COG1-HA transgene, line COG1-HA-L1) (receptor)
2 |  |  | 4.1 | COG1-HA-nVenus (receptor)
